Laboratory results as given in patent publication US12303551B2, “Cellular immunotherapy compositions and uses thereof” (CERO THERPEUTICS HOLDINGS, INC., priority 2018, dated 2025).

B1: CER104: Chimeric engulfment receptor: Tim4 binding, Tim4 transmembrane, TLR8 and DAP12 signaling; SEQ ID NO: 139 (protein)
chain: MSKGLLLLWLVTELWWLYLTPAASEDTIIGFLGQPVTLPCHYLSWSQSRNSMCWGKGSCPNSKCNAELLRTDGTRIISRKSTKYTLLGKVQFGEVSLTISNTNRGDSGVYCCRIEVPGWFNDVKKNVRLELRRATTTKKPTTTTRPTTTPYVTTTTPELLPTTVMTTSVLPTTTPPQTLATTAFSTAVTTCPSTTPGSFSQETTKGSAFTTESETLPASNHSQRSMMTISTDIAVLRPTGSNPGILPSTSQLTTQKTTLTTSESLQKTTKSHQINSRQTILIIACCVGFVLMVLLFLAFLHHLFYWDVWFIYNVCLAKVKGYRSLSTSQTFYDAYISYDTKDASVTDWVINELRYHLEESRDKNVLLCLEERDWDPGLAIIDNLMQSINQSKKTVFVLTKKYAKSWNFKTAFYLALQRLMDENMDVIIFILLEPVLQHSQYLRLRQRICKSSILQWPDNPKAEGLFWQTLRNVVLTENDSRYNNMYVDSIKQYYFLGRLVPRGRGAAEAATRKQRITETESPYQELQGQRSDVYSDLNTQRPYYK
modifications: CER104, amino acids 1-22 are signal peptide
B2: CER117: Chimeric engulfment receptor: Tim4 binding, Tim4 transmembrane, TLR8 and TRAF6 signaling; SEQ ID NO: 153 (protein)
chain: MSKGLLLLWLVTELWWLYLTPAASEDTIIGFLGQPVTLPCHYLSWSQSRNSMCWGKGSCPNSKCNAELLRTDGTRIISRKSTKYTLLGKVQFGEVSLTISNTNRGDSGVYCCRIEVPGWFNDVKKNVRLELRRATTTKKPTTTTRPTTTPYVTTTTPELLPTTVMTTSVLPTTTPPQTLATTAFSTAVTTCPSTTPGSFSQETTKGSAFTTESETLPASNHSQRSMMTISTDIAVLRPTGSNPGILPSTSQLTTQKTTLTTSESLQKTTKSHQINSRQTILIIACCVGFVLMVLLFLAFLHHLFYWDVWFIYNVCLAKVKGYRSLSTSQTFYDAYISYDTKDASVTDWVINELRYHLEESRDKNVLLCLEERDWDPGLAIIDNLMQSINQSKKTVFVLTKKYAKSWNFKTAFYLALQRLMDENMDVIIFILLEPVLQHSQYLRLRQRICKSSILQWPDNPKAEGLFWQTLRNVVLTENDSRYNNMYVDSIKQYMSLLNCENSCGSSQSESDCCVAMASSCSAVTKDDSVGGTASTGNLSSSFMEEIQGYDVEFDPPLESKYECPICLMALREAVQTPCGHRFCKACIIKSIRDAGHKCPVDNEILLENQLFPDNFAKREILSLMVKCPNEGCLHKMELRHLEDHQAHCEFALMDCPQCQRPFQKFHINIHILKDCPRRQVSCDNCAASMAFEDKEIHDQNCPLANVICEYCNTILIREQMPNHYDLDCPTAPIPCTFSTFGCHEKMQRNHLARHLQENTQSHMRMLA
modifications: CER117, amino acids 1-22 are signal peptide
B3: CER116: Chimeric engulfment receptor: Tim4 binding, Tim4 transmembrane, TRAF6 and TLR8 signaling; SEQ ID NO: 152 (protein)
chain: MSKGLLLLWLVTELWWLYLTPAASEDTIIGFLGQPVTLPCHYLSWSQSRNSMCWGKGSCPNSKCNAELLRTDGTRIISRKSTKYTLLGKVQFGEVSLTISNTNRGDSGVYCCRIEVPGWFNDVKKNVRLELRRATTTKKPTTTTRPTTTPYVTTTTPELLPTTVMTTSVLPTTTPPQTLATTAFSTAVTTCPSTTPGSFSQETTKGSAFTTESETLPASNHSQRSMMTISTDIAVLRPTGSNPGILPSTSQLTTQKTTLTTSESLQKTTKSHQINSRQTILIIACCVGFVLMVLLFLAFLMSLLNCENSCGSSQSESDCCVAMASSCSAVTKDDSVGGTASTGNLSSSFMEEIQGYDVEFDPPLESKYECPICLMALREAVQTPCGHRFCKACIIKSIRDAGHKCPVDNEILLENQLFPDNFAKREILSLMVKCPNEGCLHKMELRHLEDHQAHCEFALMDCPQCQRPFQKFHINIHILKDCPRRQVSCDNCAASMAFEDKEIHDQNCPLANVICEYCNTILIREQMPNHYDLDCPTAPIPCTFSTFGCHEKMQRNHLARHLQENTQSHMRMLAHHLFYWDVWFIYNVCLAKVKGYRSLSTSQTFYDAYISYDTKDASVTDWVINELRYHLEESRDKNVLLCLEERDWDPGLAIIDNLMQSINQSKKTVFVLTKKYAKSWNFKTAFYLALQRLMDENMDVIIFILLEPVLQHSQYLRLRQRICKSSILQWPDNPKAEGLFWQTLRNVVLTENDSRYNNMYVDSIKQY
modifications: CER116, amino acids 1-22 are signal peptide

Test system: SCC152 cells
Assay: Elimination of GFP-expressing SCC152 target cells over time (quantification and time lapse imaging)
Format: cell-based
Settings: for number of SCC152 cells in time lapse imaging: 96-well co-culture, CD8+/E7 TCR + CD4+/CER + SCC152 1:1:1, compared to control; for elimination of SCC152 cells, time lapse imaging: 0 to 36 hrs, compared to the control; for elimination of SCC152 cells (GFP quantification): by 36 hrs, 1:1:1 ratio (CD8:CD4:target cell), compared to control
Summary of the method: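 GFP-labelled SCC152 (HPV16+) target cells were co-cultured at 1:1:1 with CD8+ T cells carrying an HPV16 E7 TCR and with CD4+ T cells transduced with a chimeric CER or a control. Remaining target cells were counted by fluorescence imaging and automated software at 0, 12, 24, 36 h or 0, 24, 48 h.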

Molecule | number of SCC152 cells in time lapse imaging | elimination of SCC152 cells, time lapse imaging | elimination of SCC152 cells (GFP quantification)
B1 | decreasing in numbers over time |  | 
B2 |  | enhanced elimination of SCC152 cells | nearly complete elimination
B3 | decreasing in numbers over time | enhanced elimination of SCC152 cells | nearly complete elimination
